PMC5913336, “True equilibrium measurement of transcription factor-DNA binding affinities using automated polarization microscopy”

Legend:
Bicoid DBD-GST (Bcd) [1] = molecular target: T1, Bicoid DBD-GST (Bcd) (UniProt P09081 83-170); experiment: competitive fluorescence anisotropy (HiP-FA); mean of replicates 4.889, 5.1445; HiP-FA: 33 mM phosphate pH 7.0, 90 mM NaCl, 0.01% Tween 20, 0.1 mM DTT, 0.5% agarose; conventional titration and EMSA: 20 mM Tris-acetate pH 7.0, 50 nM (sic) NaCl, 0.01% Tween-20, 0.1 mM DTT; conditions: protein: recombinant; tags: N-terminal GST; blunt, C:C mismatch at position 6 as printed
T1 sequence: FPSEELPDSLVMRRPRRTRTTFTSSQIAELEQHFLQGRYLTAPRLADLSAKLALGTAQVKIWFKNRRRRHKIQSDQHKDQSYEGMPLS

Bicoid DBD-GST (Bcd) [2] = molecular target: T1, Bicoid DBD-GST (Bcd); experiment: competitive fluorescence anisotropy (HiP-FA); mean of replicates 2.804, 2.596; HiP-FA: 33 mM phosphate pH 7.0, 90 mM NaCl, 0.01% Tween 20, 0.1 mM DTT, 0.5% agarose; conventional titration and EMSA: 20 mM Tris-acetate pH 7.0, 50 nM (sic) NaCl, 0.01% Tween-20, 0.1 mM DTT; conditions: protein: recombinant; tags: N-terminal GST; blunt, G:G mismatch at position 6
Bicoid DBD-GST (Bcd) [3] = molecular target: T1, Bicoid DBD-GST (Bcd); experiment: competitive fluorescence anisotropy (HiP-FA); mean of replicates 49.501, 48.184; HiP-FA: 33 mM phosphate pH 7.0, 90 mM NaCl, 0.01% Tween 20, 0.1 mM DTT, 0.5% agarose; conventional titration and EMSA: 20 mM Tris-acetate pH 7.0, 50 nM (sic) NaCl, 0.01% Tween-20, 0.1 mM DTT; conditions: protein: recombinant; tags: N-terminal GST; blunt, G:G mismatch at position 6
Bicoid DBD-GST (Bcd) [4] = molecular target: T1, Bicoid DBD-GST (Bcd); experiment: competitive fluorescence anisotropy (HiP-FA); mean of replicates 6.092, 5.6175; HiP-FA: 33 mM phosphate pH 7.0, 90 mM NaCl, 0.01% Tween 20, 0.1 mM DTT, 0.5% agarose; conventional titration and EMSA: 20 mM Tris-acetate pH 7.0, 50 nM (sic) NaCl, 0.01% Tween-20, 0.1 mM DTT; conditions: protein: recombinant; tags: N-terminal GST; blunt
Bicoid DBD-GST (Bcd) [5] = molecular target: T1, Bicoid DBD-GST (Bcd); experiment: competitive fluorescence anisotropy (HiP-FA); mean of replicates 8.014, 7.5595; HiP-FA: 33 mM phosphate pH 7.0, 90 mM NaCl, 0.01% Tween 20, 0.1 mM DTT, 0.5% agarose; conventional titration and EMSA: 20 mM Tris-acetate pH 7.0, 50 nM (sic) NaCl, 0.01% Tween-20, 0.1 mM DTT; conditions: protein: recombinant; tags: N-terminal GST; blunt, G:G mismatch at position 6
Bicoid DBD-GST (Bcd) [6] = molecular target: T1, Bicoid DBD-GST (Bcd); experiment: competitive fluorescence anisotropy (HiP-FA); mean of replicates 2.816, 2.505; HiP-FA: 33 mM phosphate pH 7.0, 90 mM NaCl, 0.01% Tween 20, 0.1 mM DTT, 0.5% agarose; conventional titration and EMSA: 20 mM Tris-acetate pH 7.0, 50 nM (sic) NaCl, 0.01% Tween-20, 0.1 mM DTT; conditions: protein: recombinant; tags: N-terminal GST; blunt, G:G mismatch at position 6
Bicoid DBD-GST (Bcd) [7] = molecular target: T1, Bicoid DBD-GST (Bcd); experiment: competitive fluorescence anisotropy (HiP-FA); mean of replicates 4.834, 5.5235; HiP-FA: 33 mM phosphate pH 7.0, 90 mM NaCl, 0.01% Tween 20, 0.1 mM DTT, 0.5% agarose; conventional titration and EMSA: 20 mM Tris-acetate pH 7.0, 50 nM (sic) NaCl, 0.01% Tween-20, 0.1 mM DTT; conditions: protein: recombinant; tags: N-terminal GST; blunt, G:G mismatch at position 6
Bicoid DBD-GST (Bcd) [8] = molecular target: T1, Bicoid DBD-GST (Bcd); experiment: competitive fluorescence anisotropy (HiP-FA); mean of replicates 5.027, 4.3975; HiP-FA: 33 mM phosphate pH 7.0, 90 mM NaCl, 0.01% Tween 20, 0.1 mM DTT, 0.5% agarose; conventional titration and EMSA: 20 mM Tris-acetate pH 7.0, 50 nM (sic) NaCl, 0.01% Tween-20, 0.1 mM DTT; conditions: protein: recombinant; tags: N-terminal GST; blunt, G:G mismatch at position 6
Bicoid DBD-GST (Bcd) [9] = molecular target: T1, Bicoid DBD-GST (Bcd); experiment: competitive fluorescence anisotropy (HiP-FA); mean of replicates 5.163, 4.995; HiP-FA: 33 mM phosphate pH 7.0, 90 mM NaCl, 0.01% Tween 20, 0.1 mM DTT, 0.5% agarose; conventional titration and EMSA: 20 mM Tris-acetate pH 7.0, 50 nM (sic) NaCl, 0.01% Tween-20, 0.1 mM DTT; conditions: protein: recombinant; tags: N-terminal GST; blunt, G:G mismatch at position 6
Bicoid DBD-GST (Bcd) [10] = molecular target: T1, Bicoid DBD-GST (Bcd); experiment: competitive fluorescence anisotropy (HiP-FA); mean of replicates 12.922, 12.5195; HiP-FA: 33 mM phosphate pH 7.0, 90 mM NaCl, 0.01% Tween 20, 0.1 mM DTT, 0.5% agarose; conventional titration and EMSA: 20 mM Tris-acetate pH 7.0, 50 nM (sic) NaCl, 0.01% Tween-20, 0.1 mM DTT; conditions: protein: recombinant; tags: N-terminal GST; blunt, G:G mismatch at position 6
Bicoid DBD-GST (Bcd) [11] = molecular target: T1, Bicoid DBD-GST (Bcd); experiment: competitive fluorescence anisotropy (HiP-FA); mean of replicates 3.661, 3.6795; HiP-FA: 33 mM phosphate pH 7.0, 90 mM NaCl, 0.01% Tween 20, 0.1 mM DTT, 0.5% agarose; conventional titration and EMSA: 20 mM Tris-acetate pH 7.0, 50 nM (sic) NaCl, 0.01% Tween-20, 0.1 mM DTT; conditions: protein: recombinant; tags: N-terminal GST; blunt, G:G mismatch at position 6
Bicoid DBD-GST (Bcd) [12] = molecular target: T1, Bicoid DBD-GST (Bcd); experiment: competitive fluorescence anisotropy (HiP-FA); mean of replicates 14.726, 13.4865; HiP-FA: 33 mM phosphate pH 7.0, 90 mM NaCl, 0.01% Tween 20, 0.1 mM DTT, 0.5% agarose; conventional titration and EMSA: 20 mM Tris-acetate pH 7.0, 50 nM (sic) NaCl, 0.01% Tween-20, 0.1 mM DTT; conditions: protein: recombinant; tags: N-terminal GST; blunt, G:G mismatch at position 6
Bicoid DBD-GST (Bcd) [13] = molecular target: T1, Bicoid DBD-GST (Bcd); experiment: competitive fluorescence anisotropy (HiP-FA); mean of replicates 6.544, 6.784; HiP-FA: 33 mM phosphate pH 7.0, 90 mM NaCl, 0.01% Tween 20, 0.1 mM DTT, 0.5% agarose; conventional titration and EMSA: 20 mM Tris-acetate pH 7.0, 50 nM (sic) NaCl, 0.01% Tween-20, 0.1 mM DTT; conditions: protein: recombinant; tags: N-terminal GST; blunt
Bicoid DBD-GST (Bcd) [14] = molecular target: T1, Bicoid DBD-GST (Bcd); experiment: competitive fluorescence anisotropy (HiP-FA); mean of replicates 3.19, 4.8725; HiP-FA: 33 mM phosphate pH 7.0, 90 mM NaCl, 0.01% Tween 20, 0.1 mM DTT, 0.5% agarose; conventional titration and EMSA: 20 mM Tris-acetate pH 7.0, 50 nM (sic) NaCl, 0.01% Tween-20, 0.1 mM DTT; conditions: protein: recombinant; tags: N-terminal GST; blunt, G:G mismatch at position 6
Bicoid DBD-GST (Bcd) [15] = molecular target: T1, Bicoid DBD-GST (Bcd); experiment: competitive fluorescence anisotropy (HiP-FA); mean of replicates 49.725, 45.8965; HiP-FA: 33 mM phosphate pH 7.0, 90 mM NaCl, 0.01% Tween 20, 0.1 mM DTT, 0.5% agarose; conventional titration and EMSA: 20 mM Tris-acetate pH 7.0, 50 nM (sic) NaCl, 0.01% Tween-20, 0.1 mM DTT; conditions: protein: recombinant; tags: N-terminal GST; blunt, G:G mismatch at position 6
Bicoid DBD-GST (Bcd) [16] = molecular target: T1, Bicoid DBD-GST (Bcd); experiment: competitive fluorescence anisotropy (HiP-FA); mean of replicates 3.751, 3.7605; HiP-FA: 33 mM phosphate pH 7.0, 90 mM NaCl, 0.01% Tween 20, 0.1 mM DTT, 0.5% agarose; conventional titration and EMSA: 20 mM Tris-acetate pH 7.0, 50 nM (sic) NaCl, 0.01% Tween-20, 0.1 mM DTT; conditions: protein: recombinant; tags: N-terminal GST; blunt, G:G mismatch at position 6
Bicoid DBD-GST (Bcd) [17] = molecular target: T1, Bicoid DBD-GST (Bcd); experiment: competitive fluorescence anisotropy (HiP-FA); mean of replicates 3.961, 3.634; HiP-FA: 33 mM phosphate pH 7.0, 90 mM NaCl, 0.01% Tween 20, 0.1 mM DTT, 0.5% agarose; conventional titration and EMSA: 20 mM Tris-acetate pH 7.0, 50 nM (sic) NaCl, 0.01% Tween-20, 0.1 mM DTT; conditions: protein: recombinant; tags: N-terminal GST; blunt, G:G mismatch at position 6
Bicoid DBD-GST (Bcd) [18] = molecular target: T1, Bicoid DBD-GST (Bcd); experiment: competitive fluorescence anisotropy (HiP-FA); mean of replicates 28.134, 26.319; HiP-FA: 33 mM phosphate pH 7.0, 90 mM NaCl, 0.01% Tween 20, 0.1 mM DTT, 0.5% agarose; conventional titration and EMSA: 20 mM Tris-acetate pH 7.0, 50 nM (sic) NaCl, 0.01% Tween-20, 0.1 mM DTT; conditions: protein: recombinant; tags: N-terminal GST; blunt, G:G mismatch at position 6
Bicoid DBD-GST (Bcd) [19] = molecular target: T1, Bicoid DBD-GST (Bcd); experiment: competitive fluorescence anisotropy (HiP-FA); mean of replicates 92.598, 91.655; HiP-FA: 33 mM phosphate pH 7.0, 90 mM NaCl, 0.01% Tween 20, 0.1 mM DTT, 0.5% agarose; conventional titration and EMSA: 20 mM Tris-acetate pH 7.0, 50 nM (sic) NaCl, 0.01% Tween-20, 0.1 mM DTT; conditions: protein: recombinant; tags: N-terminal GST; blunt, G:G mismatch at position 6

B1: Bcd competitor 4 (G2C) (dsDNA)
DNA 1: TCGACCGTAATCCCTA
DNA 2: TAGGGATTACCGTCGA
- Kd (Bicoid DBD-GST (Bcd) [1]): 5.02 nM

B2: Bcd competitor 1 (C1G) (dsDNA)
DNA 1: TCGAGGGTAATCCCTA
DNA 2: TAGGGATTACGCTCGA
- Kd (Bicoid DBD-GST (Bcd) [2]): 2.7 nM

B3: Bcd competitor 21 (T7A) (dsDNA)
DNA 1: TCGACGGTAAACCCTA
DNA 2: TAGGGTTTACGGTCGA
- Kd (Bicoid DBD-GST (Bcd) [3]): 48.8 nM

B4: Bcd competitor 6 (G2A) (dsDNA)
DNA 1: TCGACAGTAATCCCTA
DNA 2: TAGGGATTACTGTCGA
- Kd (Bicoid DBD-GST (Bcd) [4]): 5.86 nM

B5: Bcd competitor 26 (C9T) (dsDNA)
DNA 1: TCGACGGTAATCTCTA
DNA 2: TAGAGATTACGGTCGA
- Kd (Bicoid DBD-GST (Bcd) [5]): 7.79 nM

B6: Bcd competitor 2 (C1T) (dsDNA)
DNA 1: TCGATGGTAATCCCTA
DNA 2: TAGGGATTACGATCGA
- Kd (Bicoid DBD-GST (Bcd) [6]): 2.66 nM

B7: Bcd competitor 30 (C10A) (dsDNA)
DNA 1: TCGACGGTAATCCATA
DNA 2: TATGGATTACGGTCGA
- Kd (Bicoid DBD-GST (Bcd) [7]): 5.18 nM

B8: Bcd competitor 33 (T11A) (dsDNA)
DNA 1: TCGACGGTAATCCCAA
DNA 2: TTGGGATTACGGTCGA
- Kd (Bicoid DBD-GST (Bcd) [8]): 4.71 nM

B9: Bcd competitor 32 (T11G) (dsDNA)
DNA 1: TCGACGGTAATCCCGA
DNA 2: TCGGGATTACGGTCGA
- Kd (Bicoid DBD-GST (Bcd) [9]): 5.08 nM

B10: Bcd competitor 27 (C9A) (dsDNA)
DNA 1: TCGACGGTAATCACTA
DNA 2: TAGTGATTACGGTCGA
- Kd (Bicoid DBD-GST (Bcd) [10]): 12.7 nM

B11: Bcd competitor 28 (C10G) (dsDNA)
DNA 1: TCGACGGTAATCCGTA
DNA 2: TACGGATTACGGTCGA
- Kd (Bicoid DBD-GST (Bcd) [11]): 3.67 nM

B12: Bcd competitor 25 (C9G) (dsDNA)
DNA 1: TCGACGGTAATCGCTA
DNA 2: TAGCGATTACGGTCGA
- Kd (Bicoid DBD-GST (Bcd) [12]): 14.1 nM

B13: Bcd competitor 5 (G2T) (dsDNA)
DNA 1: TCGACTGTAATCCCTA
DNA 2: TAGGGATTACAGTCGA
- Kd (Bicoid DBD-GST (Bcd) [13]): 6.66 nM

B14: Bcd competitor 29 (C10T) (dsDNA)
DNA 1: TCGACGGTAATCCTTA
DNA 2: TAAGGATTACGGTCGA
- Kd (Bicoid DBD-GST (Bcd) [14]): 4.03 nM

B15: Bcd competitor 24 (C8A) (dsDNA)
DNA 1: TCGACGGTAATACCTA
DNA 2: TAGGTATTACGGTCGA
- Kd (Bicoid DBD-GST (Bcd) [15]): 47.8 nM

B16: Bcd competitor 3 (C1A) (dsDNA)
DNA 1: TCGAAGGTAATCCCTA
DNA 2: TAGGGATTACGTTCGA
- Kd (Bicoid DBD-GST (Bcd) [16]): 3.76 nM

B17: Bcd competitor 31 (T11C) (dsDNA)
DNA 1: TCGACGGTAATCCCCA
DNA 2: TGGGGATTACGGTCGA
- Kd (Bicoid DBD-GST (Bcd) [17]): 3.8 nM

B18: Bcd competitor 23 (C8T) (dsDNA)
DNA 1: TCGACGGTAATTCCTA
DNA 2: TAGGAATTACGGTCGA
- Kd (Bicoid DBD-GST (Bcd) [18]): 27.2 nM

B19: Bcd competitor 22 (C8G) (dsDNA)
DNA 1: TCGACGGTAATGCCTA
DNA 2: TAGGCATTACGGTCGA
- Kd (Bicoid DBD-GST (Bcd) [19]): 92.1 nM
